Experiments:
[1] = target: T1, polypeptide 4.1, FITC(Aha)STPVSSANMK (wt CK2-derived peptide)
T1 chain: STPVSSANMK

[2] = target: T2, polypeptide 4.4, FITC(Aha)STPVSFANMK (S→F)
T2 chain: STPVSFANMK

[3] = target: T3, polypeptide 4.5, FITC(Aha)STPVSRANMK (S→R)
T3 chain: STPVSRANMK

[4] = target: T4, polypeptide 4.3, FITC(Aha)STPRSSANMK (V→R)
T4 chain: STPRSSANMK

[5] = target: T5, polypeptide 4.2, FITC(Aha)STPFSSANMK (V→F)
T5 chain: STPFSSANMK

[6] = target: T6, polypeptide 4.8, FITC(Aha)STPVSRANMK(DEAC), unglycosylated
T6 chain: STPVSRANMK

[7] = target: T7, polypeptide 4.6, FITC(Aha)STPVSSANMK(DEAC), unglycosylated
T7 chain: STPVSSANMK

B1: O-Linked N-acetylglucosaminyltransferase (OGT) (protein)
chain: MHYKEAIRISPTFADAYSNMGNTLKEMQDVQGALQCYTRAIQINPAFADAHSNLASIHKDSGNIPEAIASYRTALKLKPDFPDAYCNLAHCLQIVCDWTDYDERMKKLVSIVADQLEKNRLPSVHPHHSMLYPLSHGFRKAIAERHGNLCLDKINVLHKPPYEHPKDLKLSDGRLRVGYVSSDFGNHPTSHLMQSIPGMHNPDKFEVFCYALSPDDGTNFRVKVMAEANHFIDLSQIPCNGKAADRIHQDGIHILVNMNGYTKGARNELFALRPAPIQAMWLGYPGTSGALFMDYIITDQETSPAEVAEQYSEKLAYMPHTFFIGDHANMFPHLKKKAVIDFKSNGHIYDNRIVLNGIDLKAFLDSLPDVKIVKMKCPDGGDNADSSNTALNMPVIPMNTIAEAVIEMINRGQIQITINGFSISNGLATTQINNKAATGEEVPRTIIVTTRSQYGLPEDAIVYCNFNQLYKIDPSTLQMWANILKRVPNSVLWLLRFPAVGEPNIQQYAQNMGLPQNRIIFSPVAPKEEHVRRGQLADVCLDTPLCNGHTTGMDVLWAGTPMVTMPGETLASRVAASQLTCLGCLELIAKNRQEYEDIAVKLGTDLEYLKKVRGKVWKQRISSPLFNTKQYTMELERLYLQMWEHYAAGNKPDHMIKPVEVTESA
[1]
  Relative rate of glycosylation: 1
[2]
  Relative rate of glycosylation: 0.4
[3]
  Relative rate of glycosylation: 0.7
[4]
  Relative rate of glycosylation: 0
[5]
  Relative rate of glycosylation: 0.15

B2: Proteinase K (protein)
chain: AAQTNAPWGLARISSTSPGTSTYYYDESAGQGSCVYVIDTGIEASHPEFEGRAQMVKTYYYSSRDGNGHGTHCAGTVGSRTYGVAKKTQLFGVKVLDDNGSGQYSTIIAGMDFVASDKNNRNCPKGVVASLSLGGGYSSSVNSAAARLQSSGVMVAVAAGNNNADARNYSPASEPSVCTVGASDRYDRRSSFSNYGSVLDIFGPGTSILSTWIGGSTRSISGTSMATPHVAGLAAYLMTLGKTTAASACRYIADTANKGDLSNIPFGTVNLLAYNNYQA
[6]
  rate of proteolysis, unglycosylated against glycosylated polypeptide: ˜100-500 times faster
[7]
  rate of proteolysis, unglycosylated against glycosylated polypeptide: ˜100-500 times faster

From patent US8524444
